From patent US20250382373A1, “ANTI-EGFR/MET ANTIBODIES AND USES THEREOF” (Biocytogen Pharmaceuticals (Beijing) Co., Ltd., priority 2022, published 2025)

Assays:
NUGC-4 cells = experiment: NUGC-4 xenograft model (gastric cancer); format: in vivo, B-NDG mice; conditions: 3 mg/kg i.v. QW x2
NCI-H1975 cells = experiment: NCI-H1975 xenograft in Balb/c nude mice; format: in vivo; conditions: 10 mg/kg, BIW, 4 administrations, i.v.
Method: The mice were then injected with PBS, E-6C4-M-2F II-ADC (1.5 mg/kg, 3 mg/kg or 6 mg/kg, QW, 2 administrations in total) or Amivantamab (Janssen, Reference No.: LFS0L03) (10 mg/kg, BIW, 4 administrations in total) by intravenous (i.v.) administration.

[1] = tested on: patient-derived gastric tumor fragments; experiment: Human gastric cancer PDX model; format: in vivo, B-NDG mice; conditions: 10 mg/kg i.v. BIW x6
Method: The mice were then injected with PBS, ADCs or Amivantamab (Janssen, Reference No.: LFS01L03) by intravenous (i.v.) administration.

[2] = tested on: patient-derived ampullary tumor fragments; experiment: Human ampullary carcinoma PDX model; format: in vivo, B-NDG mice; conditions: 10 mg/kg i.v. BIW x4
Method: The ADCs were tested for their effect in human ampullary carcinoma PDX model.
The mice were then injected with PBS, ADCs or Amivantamab (Janssen, Cat #: LFS0L03) by intravenous (i.v.) administration.

Row | Molecule | Tumor volume Day 14 (NUGC-4 cells) | TGI (%) (NUGC-4 cells; Day 28) | Tumor volume Day 0 (NUGC-4 cells; day of grouping) | Tumor volume Day 28 (NUGC-4 cells; end of experiment) | Tumor-free (Day 28) (NUGC-4 cells; number of tumor-free mice/total) | TGI (NCI-H1975 cells) | Tumor volume Day 28 [1] | Tumor volume Day 56 [1] | TGI (%) ([1]; Day 56) | Tumor volume Day 0 ([1]; day of grouping) | Survival ([1]; surviving/total mice) | Tumor volume Day 14 [2] | Tumor volume Day 21 [2] | TGI (%) ([2]; Day 21) | Tumor volume Day 0 ([2]; day of grouping)
1 | Telisotuzumab analog-ADC (conjugate, chains of the INN, looked up, antibody-drug conjugate payload) VH: QVQLVQSGAEVKKPGASVKVSCKASGYIFTAYTMHWVRQAPGQGLEWMGWIKPNNGLANYAQKFQGRVTMTRDTSISTAYMELSRLRSDDTAVYYCARSEITTEFDYWGQGTLVTVSS VL: DIVMTQSPDSLAVSLGERATINCKSSESVDSYANSFLHWYQQKPGQPPKLLIYRASTRESGVPDRFSGSGSGTDFTLTISSLQAEDVAVYYCQQSKEDPLTFGGGTKVEIK | 60 ± 10 mm^3 | 108.1% | 198 ± 14 mm^3 | 88 ± 67 mm^3 | 0/5 | – | – | – | – | – | – | – | – | – | –
2 | Amivantamab: Amivantamab (Janssen, Reference No.: LFS0L03), bispecific antibody targeting EGFR and MET (antibody, chains of the INN, looked up, V domains shown) VH: QVQLVESGGGVVQPGRSLRLSCAASGFTFSTYGMHWVRQAPGKGLEWVAVIWDDGSYKYYGDSVKGRFTISRDNSKNTLYLQMNSLRAEDTAVYYCARDGITMVRGVMKDYFDYWGQGTLVTVSS VL: AIQLTQSPSSLSASVGDRVTITCRASQDISSALVWYQQKPGKAPKLLIYDASSLESGVPSRFSGSESGTDFTLTISSLQPEDFATYYCQQFNSYPLTFGGGTKVEIK VH2: QVQLVQSGAEVKKPGASVKVSCETSGYTFTSYGISWVRQAPGHGLEWMGWISAYNGYTNYAQKLQGRVTMTTDTSTSTAYMELRSLRSDDTAVYYCARDLRGTNYFDYWGQGTLVTVSS VL2: DIQMTQSPSSVSASVGDRVTITCRASQGISNWLAWFQHKPGKAPKLLIYAASSLLSGVPSRFSGSGSGTDFTLTISSLQPEDFATYYCQQANSFPITFGQGTRLEIK | – | – | – | – | – | 12.9% | 40 ± 6 mm^3 | 643 ± 391 mm^3 | 86.3% | 262 ± 24 mm^3 | 5/5 | 756 ± 78 mm^3 | 1047 ± 104 mm^3 | 8% | 273 ± 13 mm^3
